Laboratory results published in PMC10793500, “Structural insights into RNA cleavage by a novel family of bacterial RNases” (Research Square, 2023).

Target: the molecule itself
Assay: crystal structure; apo YicC; hanging drop vapor diffusion, 0.1M Tris pH 8.5, 0.3M lithium sulfate, 25% PEG 3350; six copies in the asymmetric unit

B1: YicC (E. coli endoribonuclease, proposed name RNase CS) (enzyme, UniProt P23839 1-287, looked up)
chain: MIRSMTAYARREIKGEWGSATWEMRSVNQRYLETYFRLPEQFRSLEPVVRERIRSRLTRGKVECTLRYEPDVSAQGELILNEKLAKQLVTAANWVKMQSDEGEINPVDILRWPGVMAAQEQDLDAIAAEILAALDGTLDDFIVARETEGQALKALIEQRLEGVTAEVVKVRSHMPEILQWQRERLVAKLEDAQVQLENNRLEQELVLLAQRIDVAEELDRLEAHVKETYNILKKKEAVGRRLDFMMQEFNRESNTLASKSINAEVTNSAIELKVLIEQMREQIQNIE
notes: YicC of E. coli, the prototypical member of the YicC family of endoribonucleases; Expressed from a modified pET47b vector; also called apo YicC; source: E. coli (culture of EG1261, IPTG induced), purified (Ni-NTA, SUMO-protease cleavage, Superdex 200; for cryo-EM also Hitrap Q)
With B1 as the protein, how does the “stoichiometry N” value read?
Its value is 6.
